Experimental data: patent CN115368448A (HEFEI TIANGANG IMMUNOLOGY PHARMACEUTICAL CO LTD, dated 2022)

How the values were obtained:
[1] = target: T1, CD33 on human acute myeloid leukaemia HL-60 tumour cells (human, UniProt P20138 18-364); test: flow cytometry on HL-60 cells, Alexa-647 anti-human Fc secondary
T1 construct: whole, on cells; also called 人急性髓系细胞白血病HL-60肿瘤细胞; HL-60细胞

[2] = target: T2, CD33蛋白 (SEQ ID NO:29), expressed on transduced cells (Homo sapiens (Human), UniProt P20138 18-364); test: flow cytometry on CHO-K1-CD33 cells, Alexa-647 anti-human Fc secondary
T2 construct: The entry includes the signal peptide; also called CHO-K1-CD33细胞; A375-CD33细胞

[3] = target: T3, CD27蛋白 (SEQ ID NO:27), expressed on transduced cells (Homo sapiens (Human), UniProt P26842 20-260); test: flow cytometry on CHO-K1-CD27 cells, Alexa-647 anti-human Fc secondary
T3 construct: The entry includes the signal peptide; also called CHO-K1-CD27细胞; Jurkat-NFAT-lucia-CD27细胞
T3 sequence: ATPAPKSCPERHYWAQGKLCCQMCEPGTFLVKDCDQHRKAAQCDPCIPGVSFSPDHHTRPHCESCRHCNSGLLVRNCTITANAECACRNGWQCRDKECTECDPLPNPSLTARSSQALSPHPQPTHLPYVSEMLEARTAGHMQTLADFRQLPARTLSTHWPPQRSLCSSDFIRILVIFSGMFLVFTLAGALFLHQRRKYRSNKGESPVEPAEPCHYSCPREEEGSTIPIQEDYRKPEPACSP

[4] = target: T4, CD27 on human peripheral blood CD8+ T cells (human, UniProt P26842 20-260); test: flow cytometry on human PBMC gated on CD8+ T cells, Alexa-647 anti-human Fc secondary
T4 construct: whole, on cells; also called 人外周血T细胞; 人外周血CD8+ T细胞
T4 sequence (looked up): T3 sequence

Measured: binding result

T2 sequence (P20138 18-364 limits assumed): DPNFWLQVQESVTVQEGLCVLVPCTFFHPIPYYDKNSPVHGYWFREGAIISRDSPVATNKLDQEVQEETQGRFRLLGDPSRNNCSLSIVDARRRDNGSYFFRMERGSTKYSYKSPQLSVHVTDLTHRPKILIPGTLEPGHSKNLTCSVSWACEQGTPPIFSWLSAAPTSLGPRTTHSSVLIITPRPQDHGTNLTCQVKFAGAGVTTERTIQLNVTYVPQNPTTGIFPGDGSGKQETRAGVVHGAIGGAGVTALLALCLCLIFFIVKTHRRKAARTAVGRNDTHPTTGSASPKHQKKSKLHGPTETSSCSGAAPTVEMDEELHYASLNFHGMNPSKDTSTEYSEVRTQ
T1 sequence (P20138 18-364): as the sequence (P20138 18-364 limits assumed) above

B1: CD27×CD33双特异抗体 (bispecific antibody, human IgG1, kappa, L234A L235A)
chain: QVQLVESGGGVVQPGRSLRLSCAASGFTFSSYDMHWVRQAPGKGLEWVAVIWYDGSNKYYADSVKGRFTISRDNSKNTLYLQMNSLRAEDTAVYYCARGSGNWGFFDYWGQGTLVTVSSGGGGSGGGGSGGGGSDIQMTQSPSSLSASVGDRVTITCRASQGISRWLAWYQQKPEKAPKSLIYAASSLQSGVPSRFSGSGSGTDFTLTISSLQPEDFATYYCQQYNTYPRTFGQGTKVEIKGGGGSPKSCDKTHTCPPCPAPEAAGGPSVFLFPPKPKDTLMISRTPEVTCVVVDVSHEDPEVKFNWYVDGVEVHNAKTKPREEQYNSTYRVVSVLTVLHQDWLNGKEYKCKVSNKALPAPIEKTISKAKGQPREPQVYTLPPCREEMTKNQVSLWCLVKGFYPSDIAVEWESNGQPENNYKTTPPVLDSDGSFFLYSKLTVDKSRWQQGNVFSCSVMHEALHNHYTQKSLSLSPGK
heavy: EVQLVQSGAEVKKPGSSVKVSCKASGYTITDSNIHWVRQAPGQSLEWIGYIYPYNGGTDYNQKFKNRATLTVDNPTNTAYMELSSLRSEDTAFYYCVNGNPWLAYWGQGTLVTVSSASTKGPSVFPLAPSSKSTSGGTAALGCLVKDYFPEPVTVSWNSGALTSGVHTFPAVLQSSGLYSLSSVVTVPSSSLGTQTYICNVNHKPSNTKVDKKVEPKSCDKTHTCPPCPAPEAAGGPSVFLFPPKPKDTLMISRTPEVTCVVVDVSHEDPEVKFNWYVDGVEVHNAKTKPREEQYNSTYRVVSVLTVLHQDWLNGKEYKCKVSNKALPAPIEKTISKAKGQPREPQVCTLPPSREEMTKNQVSLSCAVKGFYPSDIAVEWESNGQPENNYKTTPPVLDSDGSFFLVSKLTVDKSRWQQGNVFSCSVMHEALHNHYTQKSLSLSPGK
light: DIQLTQSPSTLSASVGDRVTITCRASESLDNYGIRFLTWFQQKPGKAPKLLMYAASNQGSGVPSRFSGSGSGTEFTLTISSLQPDDFATYYCQQTKEVPWSFGQGTKVEVKRTVAAPSVFIFPPSDEQLKSGTASVVCLLNNFYPREAKVQWKVDNALQSGNSQESVTEQDSKDSTYSLSSTLTLSKADYEKHKVYACEVTHQGLSSPVTKSFNRGEC
notes: Three-chain knob-into-hole heterodimer (scFv-Fc knob arm against CD27, Fab-Fc hole arm against CD33), human IgG1 L234A/L235A constant regions; made in ExpiCHO cells, purified on Protein A; also called 抗体CD27×CD33; 双特异抗体CD27×CD33
binds: all assays above
